Test: label from the status in PepcDB records

| Sequence | protein production |
| --- | --- |
| MKILSFAVLAAICLPMMPITTFAAETSATNALSQSQLFSRGDEYANVKISPTGKYLSAITSVEGKNVLLVLDAQTKKLLNAIRFPSNAQVGTYEWASSERIVLAKEYLKGWSDVPQYYGELMAVNADGSRPAYLFGFNSGEQQTGSNIKKNTAIKATAFILDPLPDDERYMLVNAIPWNNESSLNLELKQDVYRVDLFSGVRKRITGSPIGQARFMTDHEGEVRFVTGEDGQNVTKVFYRKDGDWVNTDKLNLGLSDFTPISFADNKNTIYAAGRVGTETLGVYRINLETGEKTEIIQDEVVDPSNFWINGTNKQLYAVEFENGYPSYAFVDNNDNHAKLLKDLIAALPGHQVQIVSETRNGEQLVVIAFNDRNPGDYYLFDTKKLKLEYLAAARKWLDPEQMAEVKPISFTNRDGQKIHGYLTLPYGKEAKNLPLVVNPHGGPHGIRDWWGFDPQNQLLAQNGMAVLQVNFRGSGGYGERFEQAGYQKWGSDIQHDIIDATQYVIGQGFVDKERICIAGGSFGGYSALQSAVLAPDMFKCAVGFAGVYDLELMFDEGDVARTRSGTSYLKDVLGQDKATLKAMSPSENVAKLKANLLLVHGGEDERAPIEQLESLEKALKNHNYPYQKLVMDNEGHGFYNDTHRAKYYDQMLSFLKTNLKL | failed |
| MKHKHGWASVVCCFVLFIVVCLSLTMHVQGAFRAAGHPEIGLLFFTLPGAVASFCSHRREVIRPLIGAMLAAPFCLVLMRVVFMPTRSFWQELAWLFSAVFWCALGALCYLFISSLFSHRRKKRR | failed |
| MIIPVRRFTPNAYIMRILVSIIVFLCIGWIGRVTELEENFITQNKPVEVGTFVTFTINIPDGSEIPYVAWDFGDGSGLGRYRKSLSVSYTFTEPGVYQVYARIQGEDFPLTVIQTVYKPTQKPAPAHSSTIVIDTVHQKVWAVNTDNNSVAYIDALNNTLLSEIPVGKQPRTVALDKDGNAWVANEEDASISVIAAATGQVLQTIILPYASRPYGICFDPQKDFCYVTLQGTGELVKIEAIGREIVESVHVGRSPRGIAVTSDGSQMLVTQFISPEENGLVRLIDTKTMHVQQEIVLAFDVTPDFEDRGRGVPNFLSSITITPDGTEAWVPSKKDNTARGMFRDGLALEFDNTVRTIVSRIDLSTMTENSQMRTDINDADMACAVEFSPYGNIAFVALQGVNKITMIDVASNSRLGLLDSTGLAPQGLVINADGSRLFVHNFLTRTVKVFNTEDIVLSNNFTPVVAATISTIITEKLAPQVLEGKQIFYNAADERMTFAGYISCASCHLDGASDERVWDFTDRGEGFRNTHSLLGRGGMDMGNVHWTSNFDEIQDFENDMRNGFKGKGFLPDAVFALVSDPLGNPKAGLSRELDALAAYVTSLNKVHASPYRNNDGSLTADGIEGEILFQELGCGSCHAGQDFTDRKTGVLHDVGTEQPSSGERRTLALTGFGTPTLKGIWETAPYLHDGSALTLKDVLVTRNAEKKHGDLSNLTETELDKLVAYLLQIDDNQDAVITALLFPIKREFVAMRIFPNPASESANVQLTNIVKSSGTIRIYNVIGHLLMTVLVEGMNEINLDVSQLNSGVYVVEYSDDTSKYSQKMVIQ | failed |
| MEGIMNPYTALPTPQQLLAIEQSVYSSDPFRQGLTPPQMPGDHMHPYGAEPLFHDLDSDDTSLSNLGDCFLATSEAGPLQSRVGNPIDHLYSMQNSYFTS | not failed |
| LSDKLMERLKERAEGIFVSGPPGSGKSTFVAALAEFYRSQGKIVKTMESPRDLQVSKEITQYAPLEGDMEKTCDILLLVRPDYTIYDEVRKTRDFEIFADMRMAGVGMVGVVHASKPIDAIQRLIGRVELGVIPQVVDTVIFIKDGKIQKVYEIDFTVKVPYG | failed |
| MTTFHADSSITRTFWRYAIPSIAAMVVSGLYQIIDGIFVGHYIGFEGLAGINMAWPAICILGAIGVMVGMGTGSVMSIYRGENKLEKTKVALTTGFWLLAILSIIAISCIVLLAKDILLAQGAEGQNFAYAMDYINVLMFGGFFTACATALPMLVRNDESPNVATFLLVIGALINIVLDYVFIGVMGLGLSGAALATLMAQACVTVLGIGYFFTQRSSIQITLQEVLFSWNKAKQSLSLGASALVMYLYGSFVVAMHNALMMYYGSATTVGAYAIVGYLFMLYYLLAQGIAEGAQPPISYYFGARENKKVYQIFKIALKWVIITGIGWVTILNISPELTTALFTNGDKALIAETIVGIRYHLFAMFLDGMIVLITIYFLSVNEGKKAMVISISNIVIQLPFLLILPKWFGIDGVWLAMPVSNIALIICIAPMVWNHLKTQKIIKPLPLTSTSVMSH | failed |
| TNDEETIQQQILALSADKRNFLRDPPAGVQFNFDFDQMYPVALVMLQEDELLSKMRFALVPKLVKEEVFWRNYFYRVSLIKQSAQLT | not failed |
